The text below walks through data of publication PMC3949714 (PLoS ONE, 2014).

Like-named read-outs stand apart in the source and are kept apart here. Where no end group is shown, it is not given here.

The nature of data set [1]: Biotransformation in homogenised inflamed tissue at pH 5.5 (LC/MS, mean residence time). The following applies: for MRT: 120 min, AUMC/AUC of LC/MS peak intensity.
The target of data set [2] is T1, delta-opioid receptors (DOR).
T1 construct: expressed in transfected cells
In kind it is cell-based. The following applies: read-out: IC50 for the inhibition of forskolin induced cAMP in HEK-DOP cells.

The nature of data set [3]: RP-HPLC retention time (read by the paper as polarity). In kind it is physicochemical. The following applies: water/acetonitrile gradient with 0.1% formic acid, MS TIC detection. The procedure: An Agilent binary HPLC composing of an Agilent 1100 LC pump, an Agilent 1100 well plate auto-sampler (Agilent Technologies, Santa Clara, CA, USA) and a Jupiter 5 μ (C4, 300 A, 150×2.00 mm, 5 μ) RP HPLC column (Phenomenex, Torrance, CA, USA) were used for separation. The mobile phase flow rate was 200 µl/min and the volume of injection was 20 µL. The separations were performed using a binary solvent gradient; water (Milli-Q; Millipore Corporation, Bedford, MA) which contained 0.1% v/v formic acid was used as the solvent A and acetonitrile (Merck KGaA, Darmstadt, Germany) which contained 0.1% v/v formic acid (Nuplex industries Pty Ltd. (NSW, Australia) was used as the solvent B. The chromatographic separation was achieved using the gradient shown in Table 1.
An API 3000 tandem mass spectrometer equipped with a turbo ion spray was used as the detector. Detection was performed in total ion current (TIC) mode (MS1/Q1), in positive mode, within the range 200–3000 amu. The data were acquired and processed by Analyst 1.5 software (Applied Biosystems, Foster city, CA, USA). Mass spectra were obtained using: declustering potential (DF) of 16 V, focusing potential (FP) of 120 V, Entrance potential (EP) of 10 V, and Ion spray voltage (IS) of 5000 V. Structure identity of fragments was performed using the respective mass/charge (m/z) values of each peptide metabolite. Direct flow injections were carried out using Model 11 plus Harvard Syringe pump (Harvard Apparatus Inc, Holliston, MA, USA).

Data set [4] deals with T2, mu-opioid receptors (MOR) (Mus musculus, UniProt P42866).
T2 construct: FLAG; expressed in transfected cells
Description: cell-based. As to conditions: for IC50: read-out: IC50 for the inhibition of forskolin induced cAMP in HEK-MOP cells. In kind it is cell-based, murine.

The mark [5] stands for this setting: incubation of BE 1-11 (115 µM) in rat inflamed tissue homogenate, MES pH 5.5, 37°C.
Where [6] appears, read: incubation of BE 1-13 (115 µM) in rat inflamed tissue homogenate, MES pH 5.5, 37°C.
[7] abbreviates: incubation of BE 1-17 (115 µM) in rat inflamed tissue homogenate, MES pH 5.5, 37°C.
Where [8] appears, read: incubation of BE 1-31 (115 µM) in rat inflamed tissue homogenate, MES pH 5.5, 37°C.
[9] abbreviates: rat inflamed tissue homogenate, MES pH 5.5, 37°C, 115 µM peptide, LC/MS.
Where [10] appears, read: incubation of BE 1-11, Jupiter C4 column.
Setting [11] is: incubation of BE 1-13, Jupiter C4 column.
The mark [12] stands for this setting: incubation of BE 1-17, Jupiter C4 column.
[13] abbreviates: incubation of BE 1-31, Jupiter C4 300 A column, 200 µl/min.

T2 sequence (P42866 whole entry): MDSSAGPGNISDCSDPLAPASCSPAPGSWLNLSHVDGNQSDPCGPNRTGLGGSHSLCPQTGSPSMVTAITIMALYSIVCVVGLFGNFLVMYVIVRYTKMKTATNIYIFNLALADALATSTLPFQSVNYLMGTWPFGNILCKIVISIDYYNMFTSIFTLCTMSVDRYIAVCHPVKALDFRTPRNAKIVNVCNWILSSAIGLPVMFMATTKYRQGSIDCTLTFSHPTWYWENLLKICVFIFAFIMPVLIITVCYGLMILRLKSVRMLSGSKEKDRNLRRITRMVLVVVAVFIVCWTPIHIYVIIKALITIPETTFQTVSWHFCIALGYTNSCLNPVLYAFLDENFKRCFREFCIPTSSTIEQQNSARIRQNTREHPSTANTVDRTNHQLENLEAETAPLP

As a reminder, the IC50 is the concentration needed to halve the response being measured. In the case of YGGFMTSEKSQ [BE 1–11], the MRT is 11 in data set [1] (setting [5]), 10.5 in data set [1] (setting [6]), 17.2 in data set [1] (setting [7]) and 57.8 in data set [1] (setting [8]). Moreover, the “Incubation period after which the peptide was undetectable” value in data set [1] (setting [9]) was 30 min. Besides, the 50% inhibitory concentration (IC50) in data set [2] worked out at 18 nM. Further, the Rt in data set [3] (setting [10]) and in data set [3] (setting [11]) was 17.4 min each time. In addition, the RT in data set [3] (setting [12]) is recorded as 17.58 min; in data set [3] (setting [13]), 19.96 min. The “Effect of naloxone pre-treatment on cAMP inhibition through MOR” value (“Effect … on cAMP inhibition through MOR” for short) in data set [4] was “inhibited by naloxone”.

In the case of YGGFMTSEKSQTP [BE 1–13], in data set [1] (formed during incubation of BE 1–31, pH 5.5, 37°C), the “Time present as metabolite within inflamed tissue homogenates” value is reported as “over 1 hour”. The MRT is 8.3 in data set [1] (setting [6]), 21.7 in data set [1] (setting [7]) and 44 in data set [1] (setting [8]). In addition, in data set [1] (setting [9]), the “Time for which the peptide was detected in inflamed tissue homogenates” value is recorded as 30 min. Besides, the half-inhibitory concentration (IC50) in data set [2] is 59 nM. In addition, the Rt in data set [3] (setting [11]) turned out to be 18.4 min; in data set [3] (incubation of BE 1-13, Jupiter C4 column, listed as BE 1-13), 18.5 min. The RT worked out at 18.6 min in data set [3] (setting [12]); 18.78 min in data set [3] (incubation of BE 1-17, Jupiter C4 column, listed as BE 1-13); 20.9 min in data set [3] (setting [13]). For the same compound, the “Effect … on cAMP inhibition through MOR” value in data set [4] is given as “inhibited by naloxone”.

`C=CCN1C[C@H](C)N([C@H](c2ccc(C(=O)N(CC)CC)cc2)c2cccc(OC)c2)C[C@H]1C` [SNC 80, 4-[(R)-[(2S,5R)-4-allyl-2,5-dimethylpiperazin-1-yl](3-methoxyphenyl)methyl]-N,N-diethylbenzamide, reference compound]: the IC50 in data set [4] (Table 2 as titled, 20000 cells/well, FSK 100 µM, 0.3 nM to 1 µM in half log intervals, 30 min, Alphascreen, one-site fit, at least three independent experiments) was determined as 8.1 nM.

For “BE 2-13: des-tyrosine beta-endorphin fragment, residues 2-13 (GGFMTSEKSQTP; Beta-endorphin; UniProt P01189 238-249, looked up, fragment)”, the figures for the MRT in data set [1] (setting [6]), in data set [1] (setting [7]) and in data set [1] (setting [8]) were 16.4, 25.5 and 65, respectively. Besides, the Rt in data set [3] (setting [11]) came out at 17.2 min. The RT in data set [3] (setting [12]) was found to be 17.08 min; in data set [3] (setting [13]), 19.96 min.

In turn, “BE 4-11: beta-endorphin fragment, residues 4-11 (FMTSEKSQ; Beta-endorphin; UniProt P01189 240-247, looked up, fragment)” yielded an MRT in data set [1] (setting [5]) of 22.7. Also, the Rt in data set [3] (setting [10]) turned out to be 13.8 min.

For the compound “BE 2-11: des-tyrosine beta-endorphin fragment, residues 2-11 (GGFMTSEKSQ; Beta-endorphin; UniProt P01189 238-247, looked up, fragment)”, the MRT in data set [1] (setting [5]) amounted to 15; in data set [1] (setting [6]) it was 20.2; in data set [1] (setting [7]), 31.8; in data set [1] (setting [8]) it was 37. Moreover, the Rt in data set [3] (setting [10]) and in data set [3] (setting [11]) was 15.7 min in each case. In addition, the RT in data set [3] (setting [12]) stood at 15.52 min; in data set [3] (setting [13]), 17.5 min.

YGGFMTSEKSQTPLVTL [BE 1–17]: the values for the MRT in data set [1] (setting [7]) and in data set [1] (setting [8]) were 5.6 and 25, respectively. Besides, the “Incubation period after which the peptide was undetectable” value in data set [1] (setting [9]) was 15 min. Moreover, the IC50 in data set [2] was found to be 25 nM. Besides, the RT in data set [3] (setting [12]) was 24.5 min; in data set [3] (incubation of BE 1-17, Jupiter C4 column, listed as BE 1-17), 24.3 min; in data set [3] (setting [13]), 24.5 min. Besides, the “Effect … on cAMP inhibition through MOR” value in data set [4] was “inhibited by naloxone”.

Compound “BE 10-31: beta-endorphin fragment, residues 10-31 (SQTPLVTLFKNAIIKNAYKKGE; Beta-endorphin; UniProt P01189 246-267, looked up, fragment)” returned an MRT in data set [1] (setting [8]) of 29. The RT in data set [3] (setting [13]) was 24.9 min.

“BE 6-16: beta-endorphin fragment, residues 6-16 (TSEKSQTPLVT; Beta-endorphin; UniProt P01189 242-252, looked up, fragment)” had an MRT in data set [1] (setting [8]) of 22.4. In addition, the RT in data set [3] (setting [12]) turned out to be 16 min; in data set [3] (setting [13]), 18.4 min.

“BE 1-14: beta-endorphin N-terminal fragment, residues 1-14 (YGGFMTSEKSQTPL; Beta-endorphin; UniProt P01189 237-250, looked up, fragment)” registered an MRT in data set [1] (setting [7]) of 13.8. The compound further came in with an RT in data set [3] (setting [12]) of 21.13 min.

Take “BE 3-11: beta-endorphin fragment, residues 3-11 (GFMTSEKSQ; Beta-endorphin; UniProt P01189 239-247, looked up, fragment)”: the MRT in data set [1] (setting [5]) worked out at 14. Besides, in data set [3] (setting [10]), the Rt is on record as 15.4 min. Besides, the RT in data set [3] (setting [12]) came to 21.48 min.

Consider YGGFMTSEKSQTPLVTLFKN [BE 1–20], for which, in data set [1] (setting [8]), the MRT is listed as 34.2. Besides, the half-maximal inhibitory concentration (IC50) in data set [2] stood at 55 nM. For the same compound, the RT in data set [3] (setting [13]) was 25.2 min. Further, in data set [4], the “Effect … on cAMP inhibition through MOR” value was “inhibited by naloxone” and the IC50 amounted to 5 nM.

For the compound YGGFMTSEK [BE 1–9], the MRT in data set [1] (setting [7]) is listed as 28; in data set [1] (setting [8]), 11.4. In addition, the values for the RT in data set [3] (setting [12]) and in data set [3] (setting [13]) were 18.13 min and 20.2 min, respectively. Also, in data set [4], the “Agonist character at MOR (extent of cAMP inhibition)” value is reported as “partial agonist”.

With “BE 20-27: beta-endorphin intermediate fragment, residues 20-27 (NAIIKNAY; Beta-endorphin; UniProt P01189 256-263, looked up, fragment)”, in data set [1] (setting [8]), the MRT was found to be 97.1. Besides, the RT in data set [3] (setting [13]) is 16.1 min.

For “BE 1-16: beta-endorphin N-terminal fragment, residues 1-16 (YGGFMTSEKSQTPLVT; Beta-endorphin; UniProt P01189 237-252, looked up, fragment)”, the MRT in data set [1] (setting [7]) is listed as 7.6; in data set [1] (setting [8]), 9.8. The RT in data set [3] (setting [12]) is 21.38 min; in data set [3] (setting [13]), 23.2 min.

Take “BE 10-24: beta-endorphin fragment, residues 10-24 (SQTPLVTLFKNAIIK; Beta-endorphin; UniProt P01189 246-260, looked up, fragment)”: the MRT in data set [1] (setting [8]) is 11.3. In data set [3] (setting [13]), this compound came in with an RT of 28.2 min.

“BE 10-28: beta-endorphin fragment, residues 10-28 (SQTPLVTLFKNAIIKNAYK; Beta-endorphin; UniProt P01189 246-264, looked up, fragment)”: in data set [1] (setting [8]), the MRT came to 32.3. The same compound registered an RT in data set [3] (setting [13]) of 26.9 min.

In data set [1] (setting [8]), “BE 5-24: beta-endorphin fragment, residues 5-24 (MTSEKSQTPLVTLFKNAIIK; Beta-endorphin; UniProt P01189 241-260, looked up, fragment)” came in with an MRT of 25.1. In data set [3] (setting [13]), the RT is listed as 19 min.

For “BE 6-31: beta-endorphin fragment, residues 6-31 (TSEKSQTPLVTLFKNAIIKNAYKKGE; Beta-endorphin; UniProt P01189 242-267, looked up, fragment)”, the MRT in data set [1] (setting [8]) was determined as 40. Moreover, the RT in data set [3] (setting [13]) was 24.7 min.

Turning to “BE 3-13: beta-endorphin fragment, residues 3-13 (GFMTSEKSQTP; Beta-endorphin; UniProt P01189 239-249, looked up, fragment)”, in data set [1] (setting [6]), the MRT was found to be 16.1. For the same compound, the Rt in data set [3] (setting [11]) turned out to be 17.2 min.

On to “BE 5-16: beta-endorphin fragment, residues 5-16 (MTSEKSQTPLVT; Beta-endorphin; UniProt P01189 241-252, looked up, fragment)”, for which the MRT in data set [1] (setting [7]) was found to be 13.2. In data set [3] (setting [12]), this compound returned an RT of 16.92 min.
